According to patent US20240034774A1 (Gilead, published 2024):
Residue numbers refer to the chain shown, from its start.

B1: 1.1.31-1 (antibody, human IgG1, kappa)
heavy: QVQLLQSGAAVTKPGASVRVSCEASGYNIRDYFIHWWRQAPGQGLQWVGWINPKTGQPNNPRQFQGRVSLTRHASWDFDTFSFYMDLKALRSDDTAVYFCARQRSDYWDFDVWGSGTQVTVSSASTKGPSVFPLAPSSKSTSGGTAALGCLVKDYFPEPVTVSWNSGALTSGVHTFPAVLQSSGLYSLSSVVTVPSSSLGTQTYICNVNHKPSNTKVDKKVEPKSCDKTHTCPPCPAPELLAGPDVFLFPPKPKDTLMISRTPEVTCVVVDVSHEDPEVKFNWYVDGVEVHNAKTKPREEQYNSTYRVVSVLTVLHQDWLNGKEYKCKVSNKALPLPEEKTISKAKGQPREPQVYTLPPSREEMTKNQVSLTCLVKGFYPSDIAVEWESNGQPENNYKTTPPVLDSDGSFFLYSKLTVDKSRWQQGNVFSCSVLHEALHSHYTQKSLSLSPGK
light: DIQMTQSPSSLSASVGDTVTITCQANGYLNWYQQRRGKAPKLLIYDGSKLERGVPSRFSGRRWGQEYTLTISSLQPEDIATYFCQVYEFVVPGTNLDLKRTVAAPSVFIFPPSDEQLKSGTASVVCLLNNFYPREAKVQWKVDNALQSGNSQESVTEQDSKDSTYSLSSTLTLSKADYEKHKVYACEVTHQGLSSPVTKSFNRGEC
B2: 1.1.35-1 (antibody, human IgG1, kappa, V domains shown)
VH: QVQLLQSGAAVTKPGASVRVSCEASGYNIRDYFIHWWRQAPGQGLQWVGWINPKTGQPNNPRQFQGRVSLTRHASWDFDTFSFYMDLKALRSDDTAVYFCARQRSDYWDFDVWGSGTQVTVSS
VL: DIQMTQSPSSLSASVGDRVTITCQANGYLNWYQQKPGKAPKLLIYDGSNLETGVPSRFSGSRWGQEYTLTISSLQPEDIATYFCQVYEFVGPGTNLDIKR
B3: 1.4.1-1 (antibody, human IgG1, kappa)
heavy: B1 heavy with L5V
light: B1 light with T68N, S72N, S73N, N95R
B4: 1.1.36-1 (antibody, human IgG1, kappa)
heavy: B1 heavy
light: B1 light with T18R, R35K, R36P, K49N, R52T, R61S, V91T, L98I
B5: 1.11.1-1 (antibody, human IgG1, kappa)
heavy: B1 heavy with I34M, F83A
light: B1 light with T68N, S72N, S73N, N95R
B6: 1.9.1-1 (antibody, human IgG1, kappa)
heavy: B1 heavy with L5V, A10E, T12K, E23K
light: B1 light with T68N, S72N, S73N, N95R
B7: 1.10.1-1 (antibody, human IgG1, kappa)
heavy: B1 heavy with I34M
light: B1 light with T68N, S72N, S73N, N95R
B8: 1.12.15-1 (antibody, human IgG1, kappa)
heavy: B1 heavy with W37V
light: B1 light with T68N, S72N, S73N, V90F, N95R
B9: 1.7.1-1 (antibody, human IgG1, kappa)
heavy: B1 heavy with A10E, T12K
light: B1 light with T68N, S72N, S73N, N95R
B10: 1.3.1-1 (antibody, human IgG1, kappa)
heavy: B1 heavy with Q3S
light: B1 light with T68N, S72N, S73N, N95R
B11: 1.1.32-1 (antibody, human IgG1, kappa)
heavy: B1 heavy
light: B1 light with V91T, N95R
B12: 1.1.34-1 (antibody, human IgG1, kappa)
heavy: B1 heavy
light: B1 light with K49N, V91T, N95R, L98I
B13: 1.8.1-1 (antibody, human IgG1, kappa)
heavy: B1 heavy with L5V, A10E
light: B1 light with T68N, S72N, S73N, N95R
B14: 1.5.1-1 (antibody, human IgG1, kappa)
heavy: B1 heavy with L5V, E23K
light: B1 light with T68N, S72N, S73N, N95R
B15: 1.6.1-1 (antibody, human IgG1, kappa)
heavy: B1 heavy with A10E
light: B1 light with T68N, S72N, S73N, N95R
B16: 1.2.1-1 (antibody, human IgG1, kappa)
heavy: B1 heavy with A10E, T12K, Q118M
light: B1 light with T68N, S72N, S73N, N95R
B17: 1.1.33-1 (antibody, human IgG1, kappa)
heavy: B1 heavy
light: B1 light with K49N, L98I

Assays:
gp120 CAAN = gp120 CAAN (HIV (CAAN)); test: single-point ELISA at EC50 conc. of A-1
gp120 SHIV SF162 P3 = gp120 SHIV SF162 P3 (SHIV SF162 P3); test: single-point ELISA at EC50 conc. of A-1
gp120 Bal = gp120 Bal (HIV (Bal)); test: single-point ELISA at EC50 conc. of A-1
BSA = BSA (UniProt P02769 25-607); test: single-point ELISA, BSA control

Binder	ELISA A450 (gp120 CAAN) [A450]	ELISA A450 (gp120 SHIV SF162 P3) [A450]	ELISA A450 (gp120 Bal) [A450]	ELISA A450 (BSA) [A450]
B1	0.96	0.87	0.87	0.06
B2	0.75	0.72	0.96	0.08
B3	0.96	1.19	1.04	0.06
B4	0.88	0.72	0.93	0.06
B5	0.75	0.57	0.93	0.09
B6	0.98	1.23	1.08	0.06
B7	0.94	1.03	0.95	0.06
B8	0.63	0.53	0.69	0.06
B9	1.04	1.08	0.98	0.06
B10	0.94	1.13	0.97	0.06
B11	1.04	0.89	0.93	0.06
B12	0.96	0.83	0.9	0.06
B13	0.9	0.94	0.86	0.06
B14	1.07	1.15	0.92	0.06
B15	0.9	1.1	0.95	0.06
B16	1.01	1.02	0.93	0.07
B17	0.94	0.84	0.87	0.07
